Assay results reported in US20140057323A1, “ENHANCED CELLODEXTRIN METABOLISM” (The Board of Trustees of the University of Illinois, priority 2011, published 2014).

Columns and labels:
[1] = substrate: OC[C@H]1O[C@@H](O[C@H]2[C@H](O)[C@@H](O)C(O)O[C@@H]2CO)[C@H](O)[C@@H](O)[C@@H]1O; assay: Kinetic parameters of purified SdCBP (glucose oxidase/peroxidase assay); format: biochemical, Saccharophagus degradans; conditions: other: SdCBP, glucose production from cellobiose, 50 mM phosphate pH 6.0
Method: (§1) The amount of cellobiase activity in cell extracts was determined by the Glucose oxidase/Peroxidase assay. […] The number of pmol of glucose produced per second was calculated by multiplying the rate of increase at 436 nm by 1.17×10^3, a conversion that was established from a glucose standard curve.
(§2) GH1-1 and SdCBP were purified directly from the D452-2 yeast strains described above. 200 mL cultures in DOB-uracil-leucine were grown to an OD (600 nm) of ˜7. Cells were pelleted and washed 1× with 40 mL ddH2O. Cell pellets were resuspended in 25 mL of 50 mM NaH2PO4 [pH 8.0], 300 mM NaCl, 10 mM imidazole, 2 mM DTT, and Roche Complete EDTA-free Protease Inhibitor Cocktail, and lysed by passage through an Avestin EmulsiFlex C-3 homogenizer at 20,000 P.S.I. Cell debris was then pelleted, and proteins purified using Nickel-NTA agarose beads from Qiagen following the protocol for native batch purification provided by Qiagen. Protein eluted from the beads was buffer exchanged into a buffer consisting of phosphate buffered saline (PBS), 10% glycerol, and 2 mM DTT, snap-frozen in (1)N2 and stored at −80° C. Protein concentrations were determined by the absorbance at 280 nm using extinction coefficients of 108750 M^−1 cm^−1 and 178540 M^−1 cm^−1, for GH1-1 and SdCBP, respectively.
(§3) A 1 mL assay included either […] of GH1-1 or […] SdCBP.
(§4) To assay the transglycosylation activity of GH1-1 and SdCBP, both enzymes were enriched from cell extracts by IMAC. […] The kinetic parameters of the enriched proteins were also measured, and the results are depicted in FIG. 12 and quantified in Table 12.

[2] = substrate: OC[C@H]1O[C@@H](O[C@H]2[C@H](O)[C@@H](O)C(O)O[C@@H]2CO)[C@H](O)[C@@H](O)[C@@H]1O; assay: Kinetic parameters of purified GH1-1 (glucose oxidase/peroxidase assay); format: biochemical, Neurospora crassa; conditions: other: GH1-1, glucose production from cellobiose, 50 mM phosphate pH 6.0
Method: as §1, §2, §3, §4

[3] = substrate: OC[C@H]1O[C@@H](O[C@H]2[C@H](O)[C@@H](O)C(O)O[C@@H]2CO)[C@H](O)[C@@H](O)[C@@H]1O; assay: cells, lysate or membranes; conditions: other: CDT-1 WT, [3H]-cellobiose uptake, pH 5.6
[4] = substrate: OC[C@H]1O[C@@H](O[C@H]2[C@H](O)[C@@H](O)C(O)O[C@@H]2CO)[C@H](O)[C@@H](O)[C@@H]1O; assay: Transporter kinetics, [3H]-cellobiose uptake into yeast; format: cell-based, Neurospora crassa; conditions: pH 5.6
Method: Briefly, the yeast strain D452-2 transformed with mutant transporters was set-up at an OD (600 nm) of −0.2 in 50 mL of DOB-uracil and grown to an OD (600 nm) of ˜1. Cells were then harvested by centrifugation, washed 3× with 10 mLs of transport buffer (30 mM MES-NaOH [pH 5.6], 50 mM EtOH), and resuspended to a final OD (600 nm) of ˜40 in transport buffer. The GFP fluorescence of 100 μL of these cells was determined with excitation/emission wavelengths of 485/535 nm Beckman Coulter Paradigm™ plate reader. […] Reactions were stopped by spinning cells through the oil for 1 minute at 17,000 g, tubes were frozen in ethanol/dry ice, and tube-bottoms containing the cell-pellets were clipped off into 1 mL of 0.5 M NaOH. The pellets were solubilized overnight, 5 mL of Ultima Gold scintillation fluid added, and CPM determined in a Tri-Carb 2900TR scintillation counter.

B1: Saccharophagus degradans cellobiose phosphorylase SdCBP, wild type, SEQ ID NO: 12 (Saccharophagus degradans 2-40) (protein)
chain: MKFGHFDDKAREYVITDPKTPYPWINYLGNEDFFSLVSNTGGGYSFYKDAKFRRLTRYRYNNVPVDNGGKYFYINDSGDVWSPGWKPVKAELDAYSCAHGLSYTRITGERNGIQAEVLSFIPLGTWAEIQKVSLKNTSGATKKFKLFSFAEWCLWNAEDDMTNFQRNFSTGEVEVEDSVIYHKTEFKERRNHYAFYSVNAPIQGFDTDRDKWKGLYNDFDKPDAVFEGEPRNSEAHGWSPIASHYLEVELAPGESKDLIFVLGYIEVAPENKWESKGVINKSPAKELIARFDSVEKVDAELTKLADYWANLLSTYSVESGDEKLDRMVNIWNQYQCMVTFNMSRSASFFESGIGRGMGFRDSNQDLIGFVHQVPERARERIIDIASTQFEDGSAYHQYQPLTKRGNNAIGGNFNDDPLWLILSTTDYIKETGDFSILEEQVPYDNDASKATSHFEHLKRSFYHTVNNLGPHGLPLIGRADWNDCLNLNCFSEDPNESFQTTGNKTGRTAESLMIAGLFVLYGNEFVKLCREIGQDGEAAEAQAHIDQMVEAVKKHGWDGEWFLRAYDYYGKKVGSKENEEGKIFIESQGFCGMAGIGLEDGLVEKSMDSVKEWLDCDYGIVLQQPAFTKYYIEYGEISTYPAGYKENAGIFCHNNPWIMITETLLGRGDKAFEYYRKIAPAYLEEISDLHKVEPYAYCQMIAGKDAYLPGEGKNSWLTGTASWNFAAITQYILGVKPDYSGLAINPCIPSSWDGFKVTRKYRGATYNIIVTNPTHVSKGVKSLTLNGNAIDGYIVPPQQAGTVCNVEVTLG
With B1 the Km [1] was 650 µM, the kcat [1] was 7 s⁻¹ and the kcat/Km [1] was 11500 M⁻¹ s⁻¹.

B2: Neurospora crassa β-glucosidase GH1-1 (NCU00130) (Neurospora crassa OR74A) (protein)
chain: MSLPKDFLWGFATAAYQIEGAIHADGRGPSIWDTFCNIPGKIADGSSGAVACDSYNRTKEDIDLLKSLGATAYRFSISWSRIIPVGGRNDPINQKGIDHYVKFVDDLLEAGITPFITLFHWDLPDGLDKRYGGLLNREEFPLDFEHYARTMFKAIPKCKHWITFNEPWCSSILGYNSGYFAPGHTSDRTKSPVGDSAREPWIVGHNLLIAHGRAVKVYREDFKPTQGGEIGITLNGDATLPWDPEDPLDVEACDRKIEFAISWFADPIYFGKYPDSMRKQLGDRLPEFTPEEVALVKGSNDFYGMNHYTANYIKHKKGVPPEDDFLGNLETLFYNKKGNCIGPETQSFWLRPHAQGFRDLLNWLSKRYGYPKIYVTENGTSLKGENAMPLKQIVEDDFRVKYFNDYVNAMAKAHSEDGVNVKGYLAWSLMDNFEWAEGYETRFGVTYVDYENDQKRYPKKSAKSLKPLFDSLIKKD
With B2 the Km [2] was 320 µM, the kcat [2] was 7 s⁻¹ and the kcat/Km [2] was 21900 M⁻¹ s⁻¹.

B3: Neurospora crassa cellodextrin transporter CDT-1 (NCU00801), wild type, SEQ ID NO: 9, GFP-tagged, in S. cerevisiae D452-2 (Neurospora crassa OR74A) (protein)
chain: MSSHGSHDGASTEKHLATHDIAPTHDAIKIVPKGHGQTATKPGAQEKEVRNAALFAAIKESNIKPWSKESIHLYFAIFVAFCCACANGYDGSLMTGIIAMDKFQNQFHTGDTGPKVSVIFSLYTVGAMVGAPFAAILSDRFGRKKGMFIGGIFIIVGSIIVASSSKLAQFVVGRFVLGLGIAIMTVAAPAYSIEIAPPHWRGRCTGFYNCGWFGGSIPAACITYGCYFIKSNWSWRIPLILQAFTCLIVMSSVFFLPESPRFLFANGRDAEAVAFLVKYHGNGDPNSKLVLLETEEMRDGIRTDGVDKVWWDYRPLFMTHSGRWRMAQVLMISIFGQFSGNGLGYFNTVIFKNIGVTSTSQQLAYNILNSVISAIGALTAVSMTDRMPRRAVLIIGTFMCAAALATNSGLSATLDKQTQRGTQINLNQGMNEQDAKDNAYLHVDSNYAKGALAAYFLFNVIFSFTYTPLQGVIPTEALETTIRGKGLALSGFIVNAMGFINQFAGPIALHNIGYKYIFVFVGWDLIETVAWYFFGVESQGRTLEQLEWVYDQPNPVKASLKVEKVVVQADGHVSEAIVA
Work on B3 yielded a Km [3] of 7.6 ± 1.5 µM.

B4: Neurospora crassa cellodextrin transporter CDT-1 (SEQ ID NO: 9) variant F213L, GFP-tagged, in S. cerevisiae D452-2 (Neurospora crassa OR74A; F213L) (protein)
chain: MSSHGSHDGASTEKHLATHDIAPTHDAIKIVPKGHGQTATKPGAQEKEVRNAALFAAIKESNIKPWSKESIHLYFAIFVAFCCACANGYDGSLMTGIIAMDKFQNQFHTGDTGPKVSVIFSLYTVGAMVGAPFAAILSDRFGRKKGMFIGGIFIIVGSIIVASSSKLAQFVVGRFVLGLGIAIMTVAAPAYSIEIAPPHWRGRCTGFYNCGWLGGSIPAACITYGCYFIKSNWSWRIPLILQAFTCLIVMSSVFFLPESPRFLFANGRDAEAVAFLVKYHGNGDPNSKLVLLETEEMRDGIRTDGVDKVWWDYRPLFMTHSGRWRMAQVLMISIFGQFSGNGLGYFNTVIFKNIGVTSTSQQLAYNILNSVISAIGALTAVSMTDRMPRRAVLIIGTFMCAAALATNSGLSATLDKQTQRGTQINLNQGMNEQDAKDNAYLHVDSNYAKGALAAYFLFNVIFSFTYTPLQGVIPTEALETTIRGKGLALSGFIVNAMGFINQFAGPIALHNIGYKYIFVFVGWDLIETVAWYFFGVESQGRTLEQLEWVYDQPNPVKASLKVEKVVVQADGHVSEAIVA
notes: [3H]-cellobiose uptake
B4 gave a Km ([4]; other: CDT-1 F213L) of 188.8 ± 55.3 µM.

B5: Neurospora crassa cellodextrin transporter CDT-1 (SEQ ID NO: 9) variant F335A, GFP-tagged, in S. cerevisiae D452-2 (Neurospora crassa OR74A; F335A) (protein)
chain: MSSHGSHDGASTEKHLATHDIAPTHDAIKIVPKGHGQTATKPGAQEKEVRNAALFAAIKESNIKPWSKESIHLYFAIFVAFCCACANGYDGSLMTGIIAMDKFQNQFHTGDTGPKVSVIFSLYTVGAMVGAPFAAILSDRFGRKKGMFIGGIFIIVGSIIVASSSKLAQFVVGRFVLGLGIAIMTVAAPAYSIEIAPPHWRGRCTGFYNCGWFGGSIPAACITYGCYFIKSNWSWRIPLILQAFTCLIVMSSVFFLPESPRFLFANGRDAEAVAFLVKYHGNGDPNSKLVLLETEEMRDGIRTDGVDKVWWDYRPLFMTHSGRWRMAQVLMISIAGQFSGNGLGYFNTVIFKNIGVTSTSQQLAYNILNSVISAIGALTAVSMTDRMPRRAVLIIGTFMCAAALATNSGLSATLDKQTQRGTQINLNQGMNEQDAKDNAYLHVDSNYAKGALAAYFLFNVIFSFTYTPLQGVIPTEALETTIRGKGLALSGFIVNAMGFINQFAGPIALHNIGYKYIFVFVGWDLIETVAWYFFGVESQGRTLEQLEWVYDQPNPVKASLKVEKVVVQADGHVSEAIVA
notes: [3H]-cellobiose uptake
B5 showed a Km ([4]; other: CDT-1 F335A) of 114.8 ± 46.4 µM.

B6: Neurospora crassa cellodextrin transporter CDT-1 (SEQ ID NO: 9) variant G91A, GFP-tagged, in S. cerevisiae D452-2 (Neurospora crassa OR74A; G91A) (protein)
chain: MSSHGSHDGASTEKHLATHDIAPTHDAIKIVPKGHGQTATKPGAQEKEVRNAALFAAIKESNIKPWSKESIHLYFAIFVAFCCACANGYDASLMTGIIAMDKFQNQFHTGDTGPKVSVIFSLYTVGAMVGAPFAAILSDRFGRKKGMFIGGIFIIVGSIIVASSSKLAQFVVGRFVLGLGIAIMTVAAPAYSIEIAPPHWRGRCTGFYNCGWFGGSIPAACITYGCYFIKSNWSWRIPLILQAFTCLIVMSSVFFLPESPRFLFANGRDAEAVAFLVKYHGNGDPNSKLVLLETEEMRDGIRTDGVDKVWWDYRPLFMTHSGRWRMAQVLMISIFGQFSGNGLGYFNTVIFKNIGVTSTSQQLAYNILNSVISAIGALTAVSMTDRMPRRAVLIIGTFMCAAALATNSGLSATLDKQTQRGTQINLNQGMNEQDAKDNAYLHVDSNYAKGALAAYFLFNVIFSFTYTPLQGVIPTEALETTIRGKGLALSGFIVNAMGFINQFAGPIALHNIGYKYIFVFVGWDLIETVAWYFFGVESQGRTLEQLEWVYDQPNPVKASLKVEKVVVQADGHVSEAIVA
notes: [3H]-cellobiose uptake
Work on B6 yielded a Km ([4]; other: CDT-1 G91A) of 43.5 ± 10.1 µM.
